Measured values published in publication PMC3103402.

Target: CBF-A (hnRNP A/B), p37 isoform (UniProt Q99020 1-285)
Experiment: EMSA

Sequence of CBF-A (hnRNP A/B), p37 isoform (Q99020 whole entry, canonical isoform): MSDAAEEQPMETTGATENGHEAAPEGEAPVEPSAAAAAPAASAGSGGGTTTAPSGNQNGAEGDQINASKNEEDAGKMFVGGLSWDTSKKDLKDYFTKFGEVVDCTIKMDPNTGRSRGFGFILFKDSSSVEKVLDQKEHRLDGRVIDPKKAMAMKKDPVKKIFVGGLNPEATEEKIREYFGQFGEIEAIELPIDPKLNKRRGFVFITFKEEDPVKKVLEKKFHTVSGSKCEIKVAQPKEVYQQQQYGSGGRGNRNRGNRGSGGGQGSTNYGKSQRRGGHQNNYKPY

## AUGGACCCAAUGAGAACUAGU (ssRNA) [BDNF wtRTS]
  binding result: binds

## GCUGAGGAGGAGGAGAUCAUU (ssRNA) [Arc wtRTS]
  binding result: binds

## AACGCCAGUGAGCCAGGAACU (ssRNA) [CaMKIIα wtRTS]
  binding result: binds
